{
  "source": "paper PMC12724345",
  "key": {"[1]": {"biological_target": "Arabidopsis SUMO1^ΔGG fused to CLuc (split-luciferase assay) (UniProt P55852)", "sequence (P55852 1-91, stated change not applied)": "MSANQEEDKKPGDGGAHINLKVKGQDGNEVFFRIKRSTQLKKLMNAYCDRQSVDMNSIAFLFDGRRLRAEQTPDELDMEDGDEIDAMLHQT", "assay": "split-luciferase complementation assay in planta", "conditions": "Rep^sim NLuc + CLuc SUMO1^ΔGG; n = 12; parent: est. 0.29; read off a plot"}, "[2]": {"biological_target": "Arabidopsis SCE1 fused to CLuc (split-luciferase assay) (UniProt Q42551)", "sequence (Q42551 whole entry, the tested form may be a part)": "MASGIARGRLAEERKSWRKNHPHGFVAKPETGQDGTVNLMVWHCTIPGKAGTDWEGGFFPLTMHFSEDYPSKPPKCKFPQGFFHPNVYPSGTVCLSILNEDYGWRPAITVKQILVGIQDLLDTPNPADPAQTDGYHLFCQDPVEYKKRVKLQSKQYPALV", "assay": "split-luciferase complementation assay in planta", "conditions": "Rep^sim NLuc + CLuc SCE1; n = 12; parent: est. 0.36; read off a plot"}},
  "data": [
    {"substance": "Rep of TYLCV fused to NLuc (split-luciferase assay) I215A; V216A; I217A", "values": [
      {"measurement": "response (fraction of total signal)", "setting": "[1]", "value": 0.08},
      {"measurement": "response (fraction of total signal)", "setting": "[2]", "value": 0.075}
    ]}
  ]
}
